This note sets out measurements from patent US20180072805A1.

This test concerns the target recombinant human soluble Flt-1 (human) (UniProt P17948). Nature of the test: competition ELISA, inhibition of human sFlt-1:VEGF binding. On the technique in general: An ELISA detects its analyte on a solid surface through an enzyme-linked reagent.
Sequence of UniProt P17948 (P17948 other isoform, or with tags, fused parts or gaps limits assumed): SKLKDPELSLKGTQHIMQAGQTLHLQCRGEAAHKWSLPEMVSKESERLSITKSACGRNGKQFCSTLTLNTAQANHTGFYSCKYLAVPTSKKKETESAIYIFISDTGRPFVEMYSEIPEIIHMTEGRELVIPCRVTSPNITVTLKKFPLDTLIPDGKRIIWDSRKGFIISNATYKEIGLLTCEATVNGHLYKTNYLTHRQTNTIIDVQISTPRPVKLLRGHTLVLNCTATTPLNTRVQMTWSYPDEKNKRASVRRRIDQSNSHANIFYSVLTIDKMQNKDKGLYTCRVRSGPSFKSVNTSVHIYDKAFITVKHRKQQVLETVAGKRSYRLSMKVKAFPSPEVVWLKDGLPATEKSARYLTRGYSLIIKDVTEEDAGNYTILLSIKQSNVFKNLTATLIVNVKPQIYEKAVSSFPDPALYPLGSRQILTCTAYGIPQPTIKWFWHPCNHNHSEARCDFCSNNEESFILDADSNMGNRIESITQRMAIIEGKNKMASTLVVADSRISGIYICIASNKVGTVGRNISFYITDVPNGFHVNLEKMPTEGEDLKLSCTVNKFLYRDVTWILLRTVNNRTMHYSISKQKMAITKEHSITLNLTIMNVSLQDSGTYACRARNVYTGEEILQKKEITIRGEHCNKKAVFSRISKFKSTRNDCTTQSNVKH

As for Abcam56300 (antibody), the IC50 (read off the curve) is 10 ng/mL.
